According to a protein production outcome set (Wang et al. 2014):

Test: label from the status in PepcDB records

Q: For “MSQHLFTAFILTALAGLSTGIGSLIAFVTKHTNKTFLSVSLGFSAGVMIYVSMIEIFPTAQTILTKAMDKKSGSWLTVLAFFGGILLIAIIDKLIPSEENPHEIKTIEEEDQKPTKLMRMGLMTAIAIGIHNFPEGLATFISGLQDASIAIPIVIAIAIHNIPEGIAVSVPIYQATGSKKKAFTYSFLSGLAEPLGAIIGWFLLMPIMNNIVYGAIFSAVAGIMVFISLDELLPAAEEYGKHHLAIYGVISGMLIMAVSLLLFI”, which protein production is on record?
A: failed

Q: For “MSQKIVILGSGESGVGAALLSKAKGYDTFVSDSSMITEAFIAELQQAGIAFEQGVHSEEKILSAQLIVKSPGIPEKAPIMKLIRSKAIEVISEIEFAYRHIHPGAKFIAITGSNGKTTTTLLTHHILAQLGYSVGLGGNIGTSLARQIIHEKKDVYVLELSSFQLDDMYTFKADVAVLLNITPDHLDRYEYKFENYTASKFRIFQNLTPADYYITYSEDSVIESYKKDHPVDARYVPVSLKQLYSAGAYSDEKTIQIHALDDTVVTCNTEEFPLQGKHNYINIMAALNAAVSIGADIHKSIASIKSFRNAPHRLEFVGSIYGVKFVNDSKATNVDSVWYALDSMKTPVVLIVGGVDKGNDYSQIEALVKEKVHTVVALGKDNSKVLSGFASMVSEIKEAHSMVEAIRIAHDSAKKGDTVLLSPACASFDLFKNYEDRGTQFRNLVIELAG”, which protein production is on record?
A: failed

Q: For “MSQKRLSRVIYPGTFDPITNGHLDLIERAAQMFDEVIIAVAASPSKNTLFTLEERVEFARQVTSHLDNVSAKGFSGLLVDFAKAEKANVLIRGLRTTVDFEYEFGLTNMYRRLMPGLESVFLTPAEEHAFISSTLVREVAIHGGNVDEFVPAIVANALHQKKKI”, which protein production is on record?
A: failed

Q: With “MSQLPTLIADLALILICAGVMTLLFKKLKQPLVLGYVVAGFLASPHMPYTPSVMDTANIKTWADIGVIFLLFALGLEFSFKKIVKVGGSAIIAACTIIFCMILLGIGVGMGFGWHRMDSLFLGGMIAMSSTTIIYKAFDDLGLRKKQFTGLVLSILILEDILAIVLMVMLSTMAVSHNFEGTEMLESIGKLLFFLILWFVVGIYLIPEFLKRCRKLMGEETLLIVSLALCFGMVVMAANTGFSAAFGAFIMGSILAETIEAESIDRLVKPVKDLFGAIFFVSVGMMVDPAMIIEYAIPIIVITIAVILGQATFGTFGVILSGKPLKTAMQCGFSLTQIGEFAFIIASLGVSLHVTSDFLYPIVVAVSVITTFLTPYMIRLAEPASSFVDAHLPASWRKFLMRYSSGSQTVLNHENLWKKLLLAMVRITVVYSIVSISIIALSFRFVVPFFKENLPHFWASLLGAVFIILCISPFLRAIMVKKNHSVEFMTLWHDNRANRAPLVSTIVIRIMIAALFVIFVISGLFKASIGLIIGVAVLAVLLMVWSRRLKKQSILIERRFFQNLRSREVRAEYLGEKKPEYAGRLLSHDLHLADLEIPGESTWAGKTLMELNLGKKYGIHIASILRGKRRINIPGGSVRLFPMDKIQVIGTDEQLNVFSSAMQSGAKIDWEMYEKGEMTLKQFIIDADSVFLGKTIRESGIRDKYHCMIAGVEREDGTLMVPDVNAPFEEGDVVWVVGEKENVYQLVDQKNEKIQVK” as the sequence, how does the protein production read?
A: failed

Q: With “MSQMMQMYQQVGPAQFSAMIGQFAPYFASIAPQFVELRPGYAEVTFPKRREVLNHIGTVHAIALCNAAELAAGTMTDASIPAGHRWIPRGMTVEYLAKATGDVRAVADGSQIDWQATGNLVVPVVAYVDDKPVFRAEITMYVSQA” as the sequence, how does the protein production read?
A: not failed

Q: Which protein production does the source give for “MSQNLQETSQAYPRHRPGSHAGPKSLKVTPRATMYTFLPDNFSPAKPKPTKELRPLLCSAVLGLLLVLAAVVAWCYYSASLRKAERLRAELLDLNRGGFSIRNQKGEQVFRLAFRSGALDLDSCSRDGALLGCSRAADGRPLHFFIQTVRPKDTVMCYRVRWEEAVPGRAVEHAMFLGDAAAHWYGGAEMRTQHWPIRLDGQQEPQPFVTSDVYSSDAAFGGILERYWLSSRAAAIKVNDSVPFHLGWNSTERSMRLQARYHDTSYKPPAGRTAAPELSYRVCVGSDVTSIHKYMVRRYFNKPSRVPASEAFRDPIWSTWALHGRAVDQNKVLQFAQQIRQHRFNSSHLEIDDMYTPAYGDFNFDEGKFPNASDMFRRLRDAGFRVTLWVHPFVNYNSSSFGEGVERELFVREPTGRLPALVRWWNGIGAVLDFTHPEAREWFQGHLRRLRLRYNVTSFKFDAGEVSYLPRDFSTYRPLSDPSVWSRRYTEMAEPFFSLAEVRVGYQSQNISCFFRLVDRDSVWGYDLGLRSLIPAVLTVSMLGYPFILPDMIGGNAVPERTAGRQDGPGPERELYVRWLEVAAFMPAMQFSIPPWQYDAEVVAIAHKFAALRASLVAPLLLELAGEITDTGDPIVRPLWWIAPGDETAHRIDSQFLIGDTLLVAPVLEPGKQERDVYLPAGKWRSYKGELFDKTPVLLTDYPVDLDEVAYFTWAS” here?
A: failed

Q: For “MSQPTPAVRTFQDLILALQQYWAEQGCVVLQPYDMEVGAGTFHTATFLRAIGPETWNAAYVQPSRRPTDGRYGENPNRLQHYYQFQVVLKPNPENFQELYLGSLKHVGLDPLVHDIRFVEDNWESPTLGAWGLGWEVWLNGMEVTQFTYFQQAGGIECYPVTGEITYGLERLAMYLQGVDSVYDLVWADGPFGKVTYGDVFHQNEVEQSTYNFEHANVEKLFELFDFYESEAKRLIELDQPLPLPSYEMVLKASHTFNLLDARRAISVTARQQYILRVRTLARSVAQAYLLARAKLGFPMATPDLRDEVLAKLEAAQ”, which protein production is on record?
A: failed

Q: With “MSQRKYFGTDGVRGEVGGPVINAAFALRLGYAAGRVLAREHREHASGRGRNRPQVVIGKDTRISGYMLESALEAGLSAAGIDVLLAGPVPTPAVAYLTRTLRLAAGIVISASHNPYQDNGIKFFSAHGMKLPDDIEAAIEQALDEPLGCVGSEELGRARRMADAQGRYIEFCKSTFPHDLDLNGLKLVVDAAHGAAYNVAPHVFRELGAEVHAIGVSPDGFNINKGVGALHPESLAEEVRARGADLGIALDGDADRLQMVDGTGRIYNGDELLYAIVRERMQRGPVAGVVGTLMTNYGLERQLQQIGVGFERANVGDRYVLEQMQARGWLYGGESSGHLLCLDCHTTGDGTIAALQVLTALRRADATLAEWVADLRMYPQKMINVPLAPGLDWKTHDGLARARGAVEAELAGRGRVLIRASGTEPKLRLMVEAEDEALAQASAQKLADSLGA” as the sequence, how does the protein production read?
A: failed

Q: Which protein production does the source give for “MSQSQLLQKLASRLPLGVCVVDEHYQIIYWNEFFTDRLPTAKSDTQENNLLTLFPEAAKFLQKKINSVFVLNNASFSYWEHRPHVFDFSSSRPITGEETAMYQNIEFFPLDIEDHQVKTVCLIVQDVTELASYYQAQKCLSEQLEQEHTALSLLNKKLEAAQNQLLQSEKMVAIGQLAAGVAHEINNPIGFVNSNLQSLQDYNNKLLKLLNFYQKLTHKIGSVPYFTLEQDMLKRYQFEFICSDLPDLIRESIEGLDRVAVIVKSLKSFSHVDSSEWQYANVIEGIENTLKIAANQIKYKAVVLRNFQDNLPELYCQPMQLNQVFLNLLVNAAQAIEERGEISIDVSASDAEFIIVIRDTGSGIAASDLRKIFEPFYTTKLVGTGTGLGLSLSYSIVQKHKGEIKVSSVLGEGTAFTVILPILSPEDVA” here?
A: failed

Q: Which protein production does the source give for “MSQSSDASEKEKPKEKKSQEELEKELDKELKKGGEPKTKKDDQIHKIGETFKAGHTNFTVNKVDRVQKGEYMNVGGAVNEETKTIKDDEERLIIEVTMENIGEDSISYNFIGFDLRDKNDQSVRPVFSIEEKGRILMGGTLVSGKKVTGVLSYVIPKGEQKHYTLVYNPFLADTNSSNTEERVKDDIDYLVKLDLEHHHHHH” here?
A: not failed

Q: Which protein production does the source give for “MSQSSECARPHRRGFDFCASAVFLCTQRAQSVGGCAMRGCPLLLWRPETCQNPAPFCRGFAAQGFTAVSVVSRAVTKTTFFDENLIERVLWQFTMKEQRANAIPATCRYARYSANPTPTPRPVKINESDRTMNFEEKIATHYGHGNLTAAIRSGLQAQGITPEQASVEDLGPVDEFHIGGRAATVHFFDQIDLSETSKALDIGCGLGGAARYAAHSFGSQIEGIDLTPEYVETGGALCQWVGLSDKVNLSVASALSMPFESGDFDIAYMMHVGMNIEDKRALFKEVARVLKPGGTFAIYDIMRSNDEDLVYPVPWASSAETCCLAGPATYRAALEEGGFVVRQENDRRDFAIDFFEKMKKANAGQKSPPPLGLHVLMQQTTAEKIPNMIANLQAGRIKPVEIYAVKQ” here?
A: failed

Q: Which protein production does the source give for “MSQSSKRKNDSVVETFKDIIPLTFGEEIGNAASHGAAALLTLFILPYAAVHSFNNGGTLESISVSVYVISIFMMFISSTIYHSMQNNTSHKYILRIIDHSMIYVAISGTYTPVLLSVVGGWLGWLVTILLWGTTLWGILYKSIATKVNHRLSLIVYLVMGWVGIIFLPIIIMRTSWWFIFFIFLGGLSYTIGAWFYAQKNKPYFHMIWHIFIVLASFLHMIGIFYFM” here?
A: failed
